B1: Ubiquitin-conjugating enzyme E2 Z (Homo sapiens), Q9H832 (parent)
chain: MAESPTEEAATAGAGAAGPGASSVAGVVGVSGSGGGFGPPFLPDVWAAAAAAGGAGGPGSGLAPLPGLPPSAAAHGAALLSHWDPTLSSDWDGERTAPQCLLRIKRDIMSIYKEPPPGMFVVPDTVDMTKIHALITGPFDTPYEGGFFLFVFRCPPDYPIHPPRVKLMTTGNNTVRFNPNFYRNGKVCLSILGTWTGPAWSPAQSISSVLISIQSLMTENPYHNEPGFEQERHPGDSKNYNECIRHETIRVAVCDMMEGKCPCPEPLRGVMEKSFLEYYDFYEVACKDRLHLQGQTMQDPFGEKRGHFDYQSLLMRLGLIRQKVLERLHNENAEMDSDSSSSGTETDLHGSLRV

In this test the parent is B1. Conditions: with ubd_human UBD.
Consider K323R, for which the “effect of a mutation on the interaction” value is “decreasing interaction”.

The values are drawn from IntAct's records for PubMed 24528925.
